This is an account of results in patent publication US20170342144A1 (Sanofi, published 2017).

The labels stand for the following.
T1: human TGFβ2 (human, UniProt P61812 303-414)
T1 construct: also called TGFβ2 homodimer
T1 sequence: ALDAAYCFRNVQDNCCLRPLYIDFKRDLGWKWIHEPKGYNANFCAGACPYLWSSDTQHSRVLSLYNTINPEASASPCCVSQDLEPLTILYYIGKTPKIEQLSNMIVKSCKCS

T2: human TGFβ3 (human, UniProt P10600 301-412)
T2 sequence: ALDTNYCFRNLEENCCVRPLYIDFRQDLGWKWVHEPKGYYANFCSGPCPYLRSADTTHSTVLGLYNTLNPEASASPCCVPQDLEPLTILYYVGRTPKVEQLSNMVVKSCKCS

B1: N32A (antibody, V domains shown)
VH: QVQLVQSGAEVKKPGSSVKVSCKASGYTFSSAVISWVRQAPGQGLEWMGGVIPIVDIANYAQRFKGRVTITADESTSTTYMELSSLRSEDTAVYYCASTLGLVLDAMDYWGQGTLVTVSS
VL: ETVLTQSPGTLSLSPGERATLSCRASQSLGSSYLAWYQQKPGQAPRLLIYGASSRAPGIPDRFSGSGSGTDFTLTISRLEPEDFAVYYCQQYADSPITFGQGTRLEIK
notes: GC1008 IgG4 variant
B2: N32M (antibody, V domains shown)
VH: B1 VH with A32M
VL: B1 VL
notes: GC1008 IgG4 variant
B3: N32D (antibody, V domains shown)
VH: B1 VH with A32D
VL: B1 VL
notes: GC1008 IgG4 variant
B4: N32G (antibody, V domains shown)
VH: B1 VH with A32G
VL: B1 VL
notes: GC1008 IgG4 variant
B5: N59Y (antibody, V domains shown)
VH: B1 VH with A32N, N59Y
VL: B1 VL
notes: GC1008 IgG4 variant
B6: N32Y (antibody, V domains shown)
VH: B1 VH with A32Y
VL: B1 VL
notes: GC1008 IgG4 variant
B7: N32P (antibody, V domains shown)
VH: B1 VH with A32P
VL: B1 VL
notes: GC1008 IgG4 variant
B8: S30L (antibody, V domains shown)
VH: B1 VH with S30L, A32N
VL: B1 VL
notes: GC1008 IgG4 variant
B9: S30I (antibody, V domains shown)
VH: B1 VH with S30I, A32N
VL: B1 VL
notes: GC1008 IgG4 variant
B10: S30M (antibody, V domains shown)
VH: B1 VH with S30M, A32N
VL: B1 VL
notes: GC1008 IgG4 variant
B11: N32Q (antibody, V domains shown)
VH: B1 VH with A32Q
VL: B1 VL
notes: GC1008 IgG4 variant
B12: N32V (antibody, V domains shown)
VH: B1 VH with A32V
VL: B1 VL
notes: GC1008 IgG4 variant
B13: N32W (antibody, V domains shown)
VH: B1 VH with A32W
VL: B1 VL
notes: GC1008 IgG4 variant
B14: N59R (antibody, V domains shown)
VH: B1 VH with A32N, N59R
VL: B1 VL
notes: GC1008 IgG4 variant
B15: N32R (antibody, V domains shown)
VH: B1 VH with A32R
VL: B1 VL
notes: GC1008 IgG4 variant
B16: S30C (antibody, V domains shown)
VH: B1 VH with S30C, A32N
VL: B1 VL
notes: GC1008 IgG4 variant
B17: S30D (antibody, V domains shown)
VH: B1 VH with S30D, A32N
VL: B1 VL
notes: GC1008 IgG4 variant
B18: P53I (antibody, V domains shown)
VH: B1 VH with A32N, P53I
VL: B1 VL
notes: GC1008 IgG4 variant
B19: S30F (antibody, V domains shown)
VH: B1 VH with S30F, A32N
VL: B1 VL
notes: GC1008 IgG4 variant
B20: S30G (antibody, V domains shown)
VH: B1 VH with S30G, A32N
VL: B1 VL
notes: GC1008 IgG4 variant
B21: N32L (antibody, V domains shown)
VH: B1 VH with A32L
VL: B1 VL
notes: GC1008 IgG4 variant
B22: N32T (antibody, V domains shown)
VH: B1 VH with A32T
VL: B1 VL
notes: GC1008 IgG4 variant
B23: N32S (antibody, V domains shown)
VH: B1 VH with A32S
VL: B1 VL
notes: GC1008 IgG4 variant

Where a chain is given by its changes, count along the chain named.

The target in one assay is T3, human TGFβ1 (human, UniProt P01137 279-390).
T3 construct: also called TGFβ1 homodimer
T3 sequence (P01137 279-390 limits assumed): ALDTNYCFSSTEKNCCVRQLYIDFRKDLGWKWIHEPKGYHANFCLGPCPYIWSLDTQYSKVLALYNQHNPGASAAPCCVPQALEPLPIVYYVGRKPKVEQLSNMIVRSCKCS
Nature of the assay: Biacore off-rate vs wt GC1008, 50 nM. The procedure, abridged:
(§1)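 Surface plasmon resonance on a Biacore 3000 measured how fast purified antibody variants dissociated from TGFβ isoforms immobilized at about 100 RU. Variants carried single heavy- or light-chain substitutions and were produced by transient Expi293F transfection with Protein A cleanup. Samples at 50 nM were tested in duplicate, and each variant kd was divided by the wild-type control kd to give fold change.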
B1: the kd var/kd wt is 1.3.
B2 showed a kd var/kd wt of 1.3.
On to B3, for which the kd var/kd wt stood at 1.3.
The molecule B4 yielded a kd var/kd wt of 1.2.
With B5, the kd var/kd wt stood at 1.3.
In turn, B6 registered a kd var/kd wt of 2.1.
On the same count and under the same terms, the figure for B7 is 2; for B8 it is 1.
In turn, B9 came in with a kd var/kd wt of 1.4.
Turning to B10, the kd var/kd wt was found to be 0.7.
On to B11, for which the kd var/kd wt was found to be 0.8.
Molecule B12 gave a kd var/kd wt of 1.5.
For B13, the kd var/kd wt amounted to 1.9.
B14 yielded a kd var/kd wt of 2.4.
Consider B15, for which the kd var/kd wt is 2.3.
B16 had a kd var/kd wt of 1.2.
Consider B17, for which the kd var/kd wt was determined as 1.4.
B18: the kd var/kd wt was determined as 4.3.
On to B19, for which the kd var/kd wt was 1.
Same read-out and setting: then B20, with 0.9.
Same read-out and setting: then B21, with 1.6; and B22, with 1.5.
Turning to B23, the kd var/kd wt is 1.3.

Another assay has as its target T1, human TGFβ2. The experiment in a line: Biacore off-rate vs wt GC1008, 50 nM. The procedure, abridged: as §1
B1 gave a kd var/kd wt of 1.4.
Turning to B2, the kd var/kd wt stood at 1.3.
B3 gave a kd var/kd wt of 1.4.
B4: the kd var/kd wt was 1.2.
Take B5: the kd var/kd wt was determined as 1.1.
In the case of B6, the kd var/kd wt came out at 1.2.
B7: the kd var/kd wt stood at 1.1.
Still for that read-out and setting: the figure for B8 is 1.
As to B9, the kd var/kd wt was 1.1.
In turn, B10 returned a kd var/kd wt of 0.9.
B11 had a kd var/kd wt of 0.8.
The molecule B12 gave a kd var/kd wt of 1.1.
B13 returned a kd var/kd wt of 1.2.
On the same count and under the same terms, then B14, with 1.1.
B15 registered a kd var/kd wt of 1.2.
In turn, B16 returned a kd var/kd wt of 1.1.
Molecule B17 gave a kd var/kd wt of 1.2.
Turning to B18, the kd var/kd wt worked out at 1.6.
As to B19, the kd var/kd wt is 0.9.
In turn, B20 displayed a kd var/kd wt of 0.7.
Molecule B21 gave a kd var/kd wt of 1.3.
As for B22, the kd var/kd wt stood at 1.2.
B23 gave a kd var/kd wt of 1.3.

A further assay concerns the target T2, human TGFβ3. The experiment in a line: Biacore off-rate vs wt GC1008, 50 nM. The procedure, abridged:
as §1
Molecule B1 registered a kd var/kd wt of 1.5.
B2 returned a kd var/kd wt of 1.2.
In the case of B3, the kd var/kd wt was 1.8.
On to B4, for which the kd var/kd wt is 1.6.
Molecule B5 returned a kd var/kd wt of 1.5.
For the molecule B6, the kd var/kd wt was found to be 1.7.
On to B7, for which the kd var/kd wt worked out at 1.4.
The molecule B8 returned a kd var/kd wt of 1.
On to B9, for which the kd var/kd wt was found to be 1.1.
As to B10, the kd var/kd wt turned out to be 1.
In the case of B11, the kd var/kd wt worked out at 0.7.
Same read-out and setting: then B12, with 1.4; and B13, with 1.1; and B14, with 1.5.
The molecule B15 gave a kd var/kd wt of 1.7.
In turn, B16 yielded a kd var/kd wt of 1.
Same read-out and setting: then B17, with 1.1; and B18, with 1.3.
Still for that read-out and setting: the figure for B19 is 0.7; for B20 it is 0.9; for B21 it is 1.7.
In turn, B22 had a kd var/kd wt of 1.1.
Turning to B23, the kd var/kd wt amounted to 1.2.
